Results reported in article PMC12658140 (Nature Communications, 2025).

B1: 240-14 IgA 2F02 IgG (antibody, V domains shown)
VH: EVQLLESGGGLVQPGGSLRLSCAASGFTFSTYAMSWVRQAPGKGLEWVSTISGSGGSTYDAESVKGRFTISRDNSKNTLYLQMNSLRAEDTAVYYCAKEGGDFWSGYYANWFDPWGQGTLVTVSS
VL: QSALTQPRSVSGSPGQSVTISCTGTRSDVGGYNYVSWYQQHPGKAPKVIIYDVKKRPSGVPDRFSGSKSGNTASLTISGLQAEDEADYYCSAFAGSHTLFGGGTKVTVL
notes: source: Expi293F, transfected, purified (CaptureSelect CH1-XL beads); copies: 2 + 2
B2: AG2-G02 IgG (antibody, V domains shown)
VH: VQLVQSGAEMKKPGASVKVSCKASGYTFSAYYIHWVRQAPGQGLEWMGRINTDSGGTNFAQQFEGRVTMTRDTSISTAYMELSSLRSDDTAVYYCARGYDFWLGSYRAGGWFDPWGQGTLVTVSS
VL: not shown
notes: copies: 2 + 2

Tests used:
[1] = target: T1, H3N2 A/Hong Kong/1/1968 HA protein (Influenza A virus H3N2 A/Hong …, UniProt Q91MA7, strain); test: ELISA; conditions: both partners purified
T1 construct: source: bought: SinoBiological

[2] = target: H3N2 A/Moscow/10/1999 HA on infected MDCK-SIAT1 cells (Influenza A virus H3N2 A/Moscow/10/1999, UniProt I6SI59, strain); test: flow cytometry on cells; conditions: one partner purified
[3] = target: H14N5 A/mallard/Astrakhan/263/1982 HA protein (Influenza A virus H14N5 …, UniProt P26136, strain); test: ELISA; conditions: both partners purified

Binder	binding result [1]	binding result [2]	binding result [3]
B1	binds	binds	–
B2	–	binds	no binding (tested: 10 μg mL^−1)
